Data set [1] addresses RtcR transcriptional activator (full-length S. Typhimurium RtcR) (S. Typhimurium). Description: SEC; RtcR (48 uM) mixed with 48 uM refolded 5' tRNA-Leu(UAG) halves ending in 2',3'-cyclic phosphate; Superdex 200 Increase 10/300; 20 mM Tris-HCl pH 7.5, 100 mM NaCl, 1 mM MgCl2, 2% glycerol, 0.5% Tween 20, 1 mM ATP; peaks analysed by SDS-PAGE and denaturing gels.
The target of a further data set is T1, RtcR (full-length) (Salmonella enterica serovar Typhimurium …, UniProt Q8ZLH7 1-527).
T1 sequence: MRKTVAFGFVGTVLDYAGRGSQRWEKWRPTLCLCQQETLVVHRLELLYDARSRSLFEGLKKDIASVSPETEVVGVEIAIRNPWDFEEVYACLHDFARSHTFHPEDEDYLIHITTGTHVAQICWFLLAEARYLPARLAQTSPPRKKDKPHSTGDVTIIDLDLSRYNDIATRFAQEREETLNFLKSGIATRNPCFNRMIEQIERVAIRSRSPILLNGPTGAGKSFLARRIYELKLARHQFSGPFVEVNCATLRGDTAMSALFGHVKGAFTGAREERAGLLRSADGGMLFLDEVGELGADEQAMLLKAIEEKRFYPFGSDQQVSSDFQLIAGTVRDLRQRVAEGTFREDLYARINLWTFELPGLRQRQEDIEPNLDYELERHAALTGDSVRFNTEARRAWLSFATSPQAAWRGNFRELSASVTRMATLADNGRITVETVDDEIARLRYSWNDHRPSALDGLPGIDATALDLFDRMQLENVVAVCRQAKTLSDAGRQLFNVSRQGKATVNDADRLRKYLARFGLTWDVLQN
Description: EMSA; 1 mM ATP; 20 mM Tris-HCl pH 7.5, 50 mM NaCl, 1 mM MgCl2, 0.05% Tween 20; 1 mM ATP for RtcR; 30 min at 4 C then 30 min at room temperature; RNA 1 nM. As to conditions: protein: recombinant; chain copies: 2; label: 5'-32P (EMSA).

The target of a further data set is T2, RtcR CARF domain (Salmonella enterica serovar Typhimurium …, UniProt Q8ZLH7 1-188).
T2 sequence: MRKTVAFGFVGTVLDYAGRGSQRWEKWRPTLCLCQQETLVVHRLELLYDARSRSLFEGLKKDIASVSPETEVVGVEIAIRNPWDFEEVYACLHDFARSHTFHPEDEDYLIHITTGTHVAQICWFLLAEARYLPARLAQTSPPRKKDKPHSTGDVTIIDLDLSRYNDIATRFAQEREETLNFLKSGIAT
Description: EMSA; 20 mM Tris-HCl pH 7.5, 50 mM NaCl, 1 mM MgCl2, 0.05% Tween 20; 1 mM ATP for RtcR; 30 min at 4 C then 30 min at room temperature; RNA 1 nM. The settings on record: protein: recombinant; chain copies: 2; label: 5'-32P (EMSA).

Data on three molecules can be found in paper PMC7790460, “An RNA Repair Operon Regulated by Damaged tRNAs”.

Where “and” joins values, the source holds several entries; their conditions need not be identical. Identical values can stand only once.

Consider “RtcR transcriptional activator (full-length S. Typhimurium RtcR) (natural protein)”, for which the stoichiometry N in data set [1] is 6 and 2.

B1: tRNALeu(UAG) 5' half, after G of anticodon, cyclic phosphate (structured_RNA)
RNA: GCGGGAGUGGCGAAAUUGGUAGACGCACCAGAUUUAG
modifications: 2',3'-cyclic phosphate 3' end
Regarding B1, the “apparent K (half saturation)” value in the data set with RtcR (full-length) was approximately 125 nM; with RtcR CARF domain, approximately 200 nM.

B2: tRNALeu(UAG) 5' half, after G of anticodon, 3'-phosphate (structured_RNA)
RNA: B1 RNA
modifications: 3'-phosphate
On to B2, for which, in the data set with RtcR CARF domain, the binding result is reported as “no binding”.
